Results as given in patent publication US20050143285A1 (published 2005).

Key:
[1] = target: T1, α-bungarotoxin (UniProt P60615 22-95)
T1 sequence: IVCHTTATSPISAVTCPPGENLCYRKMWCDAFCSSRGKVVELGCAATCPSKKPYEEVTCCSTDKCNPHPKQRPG

[2] = target: T1, α-bungarotoxin; experiment: stopped-flow spectrofluorimetry
[3] = target: T1, α-bungarotoxin; experiment: stopped-flow spectrofluorimetry, excitation 280 nm, emission above 305 nm

B1: Aplysia californica acetylcholine binding protein (AChBP) (other)
chain: HSQANLMRLKSDLFNRSPMYPGPTKDDPLTVTLGFTLQDIVKADSSTNEVDLVYYEQQRWKLNSLMWDPNEYGNITDFRTSAADIWTPDITAYSSTRPVQVLSPQIAVVTHDGSVMFIPAQRLSFMCDPTGVDSEEGATCAVKFGSWVYSGFEIDLKTDTDQVDLSSYYASSKYEILSATQTRQVQHYSCCPEPYIDVNLVVKFRERRAGNGFFRNLFD
[1]
  Kd: 250 nM
[2]
  koff: 0.32 s⁻¹
[3]
  kon: 1e+06 M⁻¹ s⁻¹
